The target of one experiment is HLA-DR2 (Homo sapiens, UniProt P01903+P01911). In words: HLA-DR2 binding of MBP peptides.
In another experiment the test system is HLA-DQ6. In words: HLA-DQ6 binding of MBP peptides. On the set-up: species or system human.
The subject of experiment [1] is double-transgenic (DTg; human HLA-DR15/MBP-specific T-cell receptor) humanized mice. In words: SCH-induced EAE in double-transgenic humanized mice, clinical score. The class given is in vivo, mouse. The conditions noted are these: once weekly from Day 0; ATX-MS-1467 100 μg/dose, MBP82-98 12 μg or 100 μg/dose. Here is the method: In double-transgenic (DTg; human HLA-DR15/MBP-specific T-cell receptor) ‘humanized’ mice, EAE was induced using an emulsification of spinal cord homogenate (SCH) and CFA on Day 0. Mice also received a pertussis toxin injection on Days 0 and 2.
Throughout the study, neurological deficits were measured using a standardized clinical score scale: 0=no clinical signs, 1=limp tail, 2=impaired righting reflex, 3=partial hind limb paralysis, 4=complete hind limb paralysis, 5=moribund/death.
If animals reached a score of 4 they were euthanized to reach a humane endpoint.
[…] were treated prophylactically either with subcutaneous (sc) phosphate-buffered saline (PBS) vehicle or ATX-MS-1467 (n=10 per treatment group) starting 3 weeks before EAE induction. […]
ATX-MS-1467 was tested head-to-head with MBP82-98 and GA. […] For both compounds, the human equivalent dose (HED) was calculated based on body surface area: MBP82-98=12 μg/dose and GA=75 μg (3.75 mg/kg)/dose.
Statistical analyses for significant differences on clinical scores by treatment over time and cumulative clinical scores (area under the curve) were performed using Kruskal-Wallis with Dunn's post hoc analysis of comparisons. Disease onset was analyzed by Kaplan-Meier curve and significance was determined using the log-rank (Mantel-Cox) test. Cellular brain infiltrates were analyzed by Student's t-test. […]

For the next experiment, the system named is DR2/Ob1Het/Het mice. In words: Serum cytokine levels after s.c. treatment/challenge (Milliplex). The class given is in vivo, mouse. Here is the method: Double transgenic heterozygous mice, referred to here as DR2/Ob1Het/Het, were used for these studies. These mice express human leukocyte antigen (HLA) isotypes DRA*0101 and DRB1*1501 under the mouse major histocompatibility […] promoter and the MBP84-102-specific TCR (Ob.1A12) expressed under mouse TCRα and β promoter/enhancer elements.
DR2/Ob1Het/Het mice were treated and/challenged by a single or multiple subcutaneous (s.c.) injections of 100 μg of ATX-MS-1467 or 25 μg of a HLA binding protein (HLAbp) unrelated to EAE and/or 30-1000 μg of myelin basic protein (MBP, Sigma, M1891). Treatment paradigms varied between studies and groups (see specifics in each study). Chronic treatment with ATX-MS-1467 or with HLAbp followed a 3× weekly regimen.
Cytokine levels were quantified in serum of DR2/Ob1Het/Het mice at different time points using a Milliplex MAP mouse Cytokine/Chemokine magnetic kit (MCYTOMAG-70-PMX).

Chain of HLA-DR2 (P01903 26-254): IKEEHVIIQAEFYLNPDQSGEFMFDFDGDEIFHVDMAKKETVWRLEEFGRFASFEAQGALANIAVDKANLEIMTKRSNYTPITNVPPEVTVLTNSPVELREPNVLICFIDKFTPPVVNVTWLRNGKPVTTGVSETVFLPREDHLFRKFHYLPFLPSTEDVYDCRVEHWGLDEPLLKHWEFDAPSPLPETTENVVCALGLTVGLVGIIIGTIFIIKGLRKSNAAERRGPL
Chain of HLA-DR2 (P01911 30-266): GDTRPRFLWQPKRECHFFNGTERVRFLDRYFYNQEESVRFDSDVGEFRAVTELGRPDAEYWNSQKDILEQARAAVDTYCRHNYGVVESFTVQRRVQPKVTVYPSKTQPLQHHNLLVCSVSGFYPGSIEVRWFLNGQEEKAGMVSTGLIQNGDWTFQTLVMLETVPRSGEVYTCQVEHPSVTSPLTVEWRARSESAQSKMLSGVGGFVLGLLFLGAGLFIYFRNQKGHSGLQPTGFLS

Consider “H-Glu-Asn-Pro-Val-Val-His-Phe-Phe-Lys-Asn-Ile-Val-Thr-Pro-Arg-Thr-Pro-NH2 (H-ENPVVHFFKNIVTPRTP-NH2) [MBP 83-99]”, for which the HLA-DR2 binding result with HLA-DR2 is “HLA-DR2 binding”. Still for that read-out and setting: the result for “H-Gly-Phe-Lys-Gly-Val-Asp-Ala-Gln-Gly-Thr-Leu-Ser-Lys-Ile-Phe-NH2 (H-GFKGVDAQGTLSKIF-NH2) [MBP 140-154]” reads “HLA-DR2 binding”. For the molecule “H-Ala-Ser-Asp-Tyr-Lys-Ser-Ala-His-Lys-Gly-Phe-Lys-Gly-Val-Asp-NH2 (H-ASDYKSAHKGFKGVD-NH2) [MBP 131-145]”, the HLA-DQ6 binding entry in the experiment on HLA-DQ6 is listed as “HLA-DQ6 binding”. “H-Pro-Arg-His-Arg-Asp-Thr-Gly-Ile-Leu-Asp-Ser-Ile-Gly-Arg-Phe-NH2 (H-PRHRDTGILDSIGRF-NH2) [MBP 30-44]”: the HLA-DQ6 binding entry in the experiment on HLA-DQ6 is listed as “HLA-DQ6 binding”. Take “MBP82-98: 17-amino acid synthetic peptide identical to MBP (dirucotide)”: in experiment [1], the “disease severity vs vehicle” value is “did not show significant effects”.

B1: MBP: myelin basic protein (MBP, Sigma, M1891), full length (protein, UniProt P02686 1-304, looked up)
Myelin basic protein: MGNHAGKRELNAEKASTNSETNRGESEKKRNLGELSRTTSEDNEVFGEADANQNNGTSSQDTAVTDSKRTADPKNAWQDAHPADPGSRPHLIRLFSRDAPGREDNTFKDRPSESDELQTIQEDSAATSESLDVMASQKRPSQRHGSKYLATASTMDHARHGFLPRHRDTGILDSIGRFFGGDRGAPKRGSGKDSHHPARTAHYGSLPQKSHGRTQDENPVVHFFKNIVTPRTPPPSQGKGRGLSLSRFSWGAEGQRPGFGYGGRASDYKSAHKGFKGVDAQGTLSKIFKLGGRDSRSGSPMARR
With B1, the “dose dependence of serum cytokine secretion” value in the experiment with DR2/Ob1Het/Het mice (2 h after s.c. injection, 30-1000 μg) is recorded as “dose-dependent secretion of cytokines”. Besides, the “cytokine secretion in the blood after acute treatment” value in the experiment on DR2/Ob1Het/Het mice (single s.c. injection, FIG. 4 (MBP), FIG. 5 (ATX-MS-1467 100 μg/mouse)) was “induces the secretion of both pro and anti-inflammatory cytokines”.

(Values after patent US20210093695A1, “Method” (APITOPE TECHNOLOGY (BRISTOL) LIMITED, priority 2017, published 2021).)
